Data from IntAct's records for PubMed 25416956.

B1: DNA ligase 4 (Homo sapiens), P49917 (parent)
chain: MAASQTSQTVASHVPFADLCSTLERIQKSKGRAEKIRHFREFLDSWRKFHDALHKNHKDVTDSFYPAMRLILPQLERERMAYGIKETMLAKLYIELLNLPRDGKDALKLLNYRTPTGTHGDAGDFAMIAYFVLKPRCLQKGSLTIQQVNDLLDSIASNNSAKRKDLIKKSLLQLITQSSALEQKWLIRMIIKDLKLGVSQQTIFSVFHNDAAELHNVTTDLEKVCRQLHDPSVGLSDISITLFSAFKPMLAAIADIEHIEKDMKHQSFYIETKLDGERMQMHKDGDVYKYFSRNGYNYTDQFGASPTEGSLTPFIHNAFKADIQICILDGEMMAYNPNTQTFMQKGTKFDIKRMVEDSDLQTCYCVFDVLMVNNKKLGHETLRKRYEILSSIFTPIPGRIEIVQKTQAHTKNEVIDALNEAIDKREEGIMVKQPLSIYKPDKRGEGWLKIKPEYVSGLMDELDILIVGGYWGKGSRGGMMSHFLCAVAEKPPPGEKPSVFHTLSRVGSGCTMKELYDLGLKLAKYWKPFHRKAPPSSILCGTEKPEVYIEPCNSVIVQIKAAEIVPSDMYKTGCTLRFPRIEKIRDDKEWHECMTLDDLEQLRGKASGKLASKHLYIGGDDEPQEKKRKAAPKMKKVIGIIEHLKAPNLTNVNKISNIFEDVEFCVMSGTDSQPKPDLENRIAEFGGYIVQNPGPDTYCVIAGSENIRVKNIILSNKHDVVKPAWLLECFKTKSFVPWQPRFMIHMCPSTKEHFAREYDCYGDSYFIDTDLNQLKEVFSGIKNSNEQTPEEMASLIADLEYRYSWDCSPLSMFRRHTVYLDSYAVINDLSTKNEGTRLAIKALELRFHGAKVVSCLAEGVSHVIIGEDHSRVADFKAFRRTFKRKFKILKESWVTDSIDKCELQEENQYLI
B2: Chorion-specific transcription factor GCMb (Homo sapiens), O75603 (parent)
chain: MPAAAVQEAVGVCSYGMQLSWDINDPQMPQELALFDQFREWPDGYVRFIYSSDEKKAQRHLSGWAMRNTNNHNGHILKKSCLGVVVCTQACTLPDGSRLQLRPAICDKARLKQQKKACPNCHSALELIPCRGHSGYPVTNFWRLDGNAIFFQAKGVHDHPRPESKSETEARRSAIKRQMASFYQPQKKRIRESEAEENQDSSGHFSNIPPLENPEDFDIVTETSFPIPGQPCPSFPKSDVYKATCDLATFQGDKMPPFQKYSSPRIYLPRPPCSYELANPGYTNSSPYPTLYKDSTSIPNDTDWVHLNTLQCNVNSYSSYERSFDFTNKQHGWKPALGKPSLVERTNHGQFQAMATRPYYNPELPCRYLTTPPPGAPALQTVITTTTKVSYQAYQPPAMKYSDSVREVKSLSSCNYAPEDTGMSVYPEPWGPPVTVTRAASPSGPPPMKIAGDCRAIRPTVAIPHEPVSSRTDEAETWDVCLSGLGSAVSYSDRVGPFFTYNNEDF
B3: X-linked retinitis pigmentosa GTPase regulator (Homo sapiens), Q92834 (parent)
chain: MREPEELMPDSGAVFTFGKSKFAENNPGKFWFKNDVPVHLSCGDEHSAVVTGNNKLYMFGSNNWGQLGLGSKSAISKPTCVKALKPEKVKLAACGRNHTLVSTEGGNVYATGGNNEGQLGLGDTEERNTFHVISFFTSEHKIKQLSAGSNTSAALTEDGRLFMWGDNSEGQIGLKNVSNVCVPQQVTIGKPVSWISCGYYHSAFVTTDGELYVFGEPENGKLGLPNQLLGNHRTPQLVSEIPEKVIQVACGGEHTVVLTENAVYTFGLGQFGQLGLGTFLFETSEPKVIENIRDQTISYISCGENHTALITDIGLMYTFGDGRHGKLGLGLENFTNHFIPTLCSNFLRFIVKLVACGGCHMVVFAAPHRGVAKEIEFDEINDTCLSVATFLPYSSLTSGNVLQRTLSARMRRRERERSPDSFSMRRTLPPIEGTLGLSACFLPNSVFPRCSERNLQESVLSEQDLMQPEEPDYLLDEMTKEAEIDNSSTVESLGETTDILNMTHIMSLNSNEKSLKLSPVQKQKKQQTIGELTQDTALTENDDSDEYEEMSEMKEGKACKQHVSQGIFMTQPATTIEAFSDEEVGNDTGQVGPQADTDGEGLQKEVYRHENNNGVDQLDAKEIEKESDGGHSQKESEAEEIDSEKETKLAEIAGMKDLREREKSTKKMSPFFGNLPDRGMNTESEENKDFVKKRESCKQDVIFDSERESVEKPDSYMEGASESQQGIADGFQQPEAIEFSSGEKEDDEVETDQNIRYGRKLIEQGNEKETKPIISKSMAKYDFKCDRLSEIPEEKEGAEDSKGNGIEEQEVEANEENVKVHGGRKEKTEILSDDLTDKAEDHEFSKTEELKLEDVDEEINAENVESKKKTVGDDESVPTGYHSKTEGAERTNDDSSAETIEKKEKANLEERAICEYNENPKGYMLDDADSSSLEILENSETTPSKDMKKTKKIFLFKRVPSINQKIVKNNNEPLPEIKSIGDQIILKSDNKDADQNHMSQNHQNIPPTNTERRSKSCTIL
partner: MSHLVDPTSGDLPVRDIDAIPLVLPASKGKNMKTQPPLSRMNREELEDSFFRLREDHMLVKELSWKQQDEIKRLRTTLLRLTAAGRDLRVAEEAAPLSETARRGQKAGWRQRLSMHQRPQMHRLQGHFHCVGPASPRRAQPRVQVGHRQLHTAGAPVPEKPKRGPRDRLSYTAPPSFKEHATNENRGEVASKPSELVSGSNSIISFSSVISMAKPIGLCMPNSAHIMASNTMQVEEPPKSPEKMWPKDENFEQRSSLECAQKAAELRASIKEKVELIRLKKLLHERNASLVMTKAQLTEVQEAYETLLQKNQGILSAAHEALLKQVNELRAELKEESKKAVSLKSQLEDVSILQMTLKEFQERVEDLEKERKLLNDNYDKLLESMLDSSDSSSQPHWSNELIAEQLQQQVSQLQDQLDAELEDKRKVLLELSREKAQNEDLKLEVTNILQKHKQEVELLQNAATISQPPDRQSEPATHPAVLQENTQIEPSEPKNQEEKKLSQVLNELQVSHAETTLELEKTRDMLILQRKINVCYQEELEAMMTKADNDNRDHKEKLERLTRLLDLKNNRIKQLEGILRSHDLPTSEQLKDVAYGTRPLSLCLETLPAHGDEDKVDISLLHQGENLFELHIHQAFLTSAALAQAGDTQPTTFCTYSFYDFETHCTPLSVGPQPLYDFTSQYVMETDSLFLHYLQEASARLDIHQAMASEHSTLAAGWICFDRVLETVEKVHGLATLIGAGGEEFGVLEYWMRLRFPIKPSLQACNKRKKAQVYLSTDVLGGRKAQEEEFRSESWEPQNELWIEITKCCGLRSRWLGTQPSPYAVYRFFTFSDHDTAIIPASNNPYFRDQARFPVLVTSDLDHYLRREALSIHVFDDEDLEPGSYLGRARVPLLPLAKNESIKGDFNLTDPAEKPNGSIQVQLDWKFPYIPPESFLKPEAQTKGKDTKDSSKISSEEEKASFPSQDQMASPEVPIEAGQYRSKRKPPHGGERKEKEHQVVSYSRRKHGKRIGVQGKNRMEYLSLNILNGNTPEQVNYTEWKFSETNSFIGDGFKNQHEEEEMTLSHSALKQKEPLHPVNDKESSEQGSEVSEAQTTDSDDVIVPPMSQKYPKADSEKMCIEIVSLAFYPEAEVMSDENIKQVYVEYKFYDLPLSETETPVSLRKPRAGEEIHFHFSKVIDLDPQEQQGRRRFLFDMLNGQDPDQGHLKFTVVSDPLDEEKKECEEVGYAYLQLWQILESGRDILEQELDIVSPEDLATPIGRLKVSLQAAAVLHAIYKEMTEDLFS
B4: Keratin, type II cytoskeletal 6A (Homo sapiens), P02538 (parent)
chain: MASTSTTIRSHSSSRRGFSANSARLPGVSRSGFSSVSVSRSRGSGGLGGACGGAGFGSRSLYGLGGSKRISIGGGSCAISGGYGSRAGGSYGFGGAGSGFGFGGGAGIGFGLGGGAGLAGGFGGPGFPVCPPGGIQEVTVNQSLLTPLNLQIDPTIQRVRAEEREQIKTLNNKFASFIDKVRFLEQQNKVLETKWTLLQEQGTKTVRQNLEPLFEQYINNLRRQLDSIVGERGRLDSELRGMQDLVEDFKNKYEDEINKRTAAENEFVTLKKDVDAAYMNKVELQAKADTLTDEINFLRALYDAELSQMQTHISDTSVVLSMDNNRNLDLDSIIAEVKAQYEEIAQRSRAEAESWYQTKYEELQVTAGRHGDDLRNTKQEIAEINRMIQRLRSEIDHVKKQCANLQAAIADAEQRGEMALKDAKNKLEGLEDALQKAKQDLARLLKEYQELMNVKLALDVEIATYRKLLEGEECRLNGEGVGQVNISVVQSTVSSGYGGASGVGSGLGLGGGSSYSYGSGLGVGGGFSSSSGRAIGGGLSSVGGGSSTIKYTTTSSSSRKSYKH
partner: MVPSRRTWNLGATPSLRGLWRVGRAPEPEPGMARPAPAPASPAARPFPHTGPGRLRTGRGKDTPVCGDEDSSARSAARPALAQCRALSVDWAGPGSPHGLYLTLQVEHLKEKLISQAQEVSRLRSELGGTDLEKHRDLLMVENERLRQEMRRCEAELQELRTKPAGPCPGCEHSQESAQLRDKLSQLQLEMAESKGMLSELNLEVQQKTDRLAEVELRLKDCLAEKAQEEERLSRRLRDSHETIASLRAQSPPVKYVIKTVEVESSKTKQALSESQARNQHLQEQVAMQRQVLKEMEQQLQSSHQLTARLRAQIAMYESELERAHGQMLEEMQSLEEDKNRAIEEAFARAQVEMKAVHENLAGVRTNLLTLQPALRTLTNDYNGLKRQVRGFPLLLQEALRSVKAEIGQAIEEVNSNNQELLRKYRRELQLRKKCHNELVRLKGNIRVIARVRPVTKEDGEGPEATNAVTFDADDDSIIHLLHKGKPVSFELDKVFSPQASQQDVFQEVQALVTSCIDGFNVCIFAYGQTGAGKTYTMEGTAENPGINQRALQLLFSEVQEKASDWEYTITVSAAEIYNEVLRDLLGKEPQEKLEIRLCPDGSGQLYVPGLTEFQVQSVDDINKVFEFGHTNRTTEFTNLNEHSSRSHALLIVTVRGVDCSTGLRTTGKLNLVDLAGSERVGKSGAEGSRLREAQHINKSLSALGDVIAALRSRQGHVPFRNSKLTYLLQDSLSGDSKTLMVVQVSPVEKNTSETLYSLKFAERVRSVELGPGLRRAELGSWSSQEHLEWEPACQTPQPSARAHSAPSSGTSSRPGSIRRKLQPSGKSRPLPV
B5: Plakophilin-2 (Homo sapiens), Q99959 (parent)
chain: MAAPGAPAEYGYIRTVLGQQILGQLDSSSLALPSEAKLKLAGSSGRGGQTVKSLRIQEQVQQTLARKGRSSVGNGNLHRTSSVPEYVYNLHLVENDFVGGRSPVPKTYDMLKAGTTATYEGRWGRGTAQYSSQKSVEERSLRHPLRRLEISPDSSPERAHYTHSDYQYSQRSQAGHTLHHQESRRAALLVPPRYARSEIVGVSRAGTTSRQRHFDTYHRQYQHGSVSDTVFDSIPANPALLTYPRPGTSRSMGNLLEKENYLTAGLTVGQVRPLVPLQPVTQNRASRSSWHQSSFHSTRTLREAGPSVAVDSSGRRAHLTVGQAAAGGSGNLLTERSTFTDSQLGNADMEMTLERAVSMLEADHMLPSRISAAATFIQHECFQKSEARKRVNQLRGILKLLQLLKVQNEDVQRAVCGALRNLVFEDNDNKLEVAELNGVPRLLQVLKQTRDLETKKQITDHTVNLRSRNGWPGAVAHACNPSTLGGQGGRITRSGVRDQPDQHGLLWNLSSNDKLKNLMITEALLTLTENIIIPFSGWPEGDYPKANGLLDFDIFYNVTGCLRNMSSAGADGRKAMRRCDGLIDSLVHYVRGTIADYQPDDKATENCVCILHNLSYQLEAELPEKYSQNIYIQNRNIQTDNNKSIGCFGSRSRKVKEQYQDVPMPEEKSNPKGVEWLWHSIVIRMYLSLIAKSVRNYTQEASLGALQNLTAGSGPMPTSVAQTVVQKESGLQHTRKMLHVGDPSVKKTAISLLRNLSRNLSLQNEIAKETLPDLVSIIPDTVPSTDLLIETTASACYTLNNIIQNSYQNARDLLNTGGIQKIMAISAGDAYASNKASKAASVLLYSLWAHTELHHAYKKAQFKKTDFVNSRTAKAYHSLKD
partner: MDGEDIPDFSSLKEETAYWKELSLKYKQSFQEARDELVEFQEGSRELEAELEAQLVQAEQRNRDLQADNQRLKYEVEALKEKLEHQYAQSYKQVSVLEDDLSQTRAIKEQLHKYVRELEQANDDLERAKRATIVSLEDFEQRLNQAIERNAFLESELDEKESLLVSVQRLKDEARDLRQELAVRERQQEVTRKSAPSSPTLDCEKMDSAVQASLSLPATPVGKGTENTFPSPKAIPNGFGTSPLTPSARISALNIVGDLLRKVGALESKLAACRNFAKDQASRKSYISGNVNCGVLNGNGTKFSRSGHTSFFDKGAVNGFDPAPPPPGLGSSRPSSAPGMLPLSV

Variants of: B1
Conditions: with xrcc4_human XRCC4, Q13426
Chain of xrcc4_human XRCC4, Q13426 (Q13426 whole entry): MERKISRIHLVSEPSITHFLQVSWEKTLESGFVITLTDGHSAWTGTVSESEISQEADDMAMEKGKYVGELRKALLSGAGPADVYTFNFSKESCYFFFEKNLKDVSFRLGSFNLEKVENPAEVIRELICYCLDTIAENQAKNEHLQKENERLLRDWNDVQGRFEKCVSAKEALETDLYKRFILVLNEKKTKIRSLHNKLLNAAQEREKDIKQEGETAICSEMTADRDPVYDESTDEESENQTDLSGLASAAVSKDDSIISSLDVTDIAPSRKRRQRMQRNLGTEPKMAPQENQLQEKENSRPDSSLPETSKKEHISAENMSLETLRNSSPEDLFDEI

| effect of a mutation on the interaction | Variant |
| --- | --- |
| disrupting interaction | A3V |

Variants of: B2
Conditions: with rbpms_human RBPMS

| effect of a mutation on the interaction | Variant |
| --- | --- |
| disrupting interaction | G63S |

Variants of: B3
Conditions: with rpgr1_human RPGRIP1, Q96KN7

| effect of a mutation on the interaction | Variant |
| --- | --- |
| disrupting interaction | T255I |

Variants of: B3
Conditions: with rpgr1_human RPGRIP1, Q96KN7
Remark: another data set of the same source

| effect of a mutation on the interaction | Variant |
| --- | --- |
| disrupting interaction | H98Q |

Variants of: B4
Conditions: with kifc3_human KIFC3, Q9BVG8

| effect of a mutation on the interaction | Variant |
| --- | --- |
| disrupting interaction | I462S |

Variants of: B4
Conditions: with kifc3_human KIFC3, Q9BVG8
Remark: another data set of the same source

| effect of a mutation on the interaction | Variant |
| --- | --- |
| disrupting interaction | N171K |

Variants of: B4
Conditions: with kifc3_human KIFC3, Q9BVG8
Remark: another data set of the same source

| effect of a mutation on the interaction | Variant |
| --- | --- |
| disrupting interaction | A463P |

Variants of: B5
Conditions: with ndel1_human NDEL1, Q9GZM8

| effect of a mutation on the interaction | Variant |
| --- | --- |
| disrupting interaction | S644P |

Variants of: B5
Conditions: with ndel1_human NDEL1, Q9GZM8
Remark: another data set of the same source

| effect of a mutation on the interaction | Variant |
| --- | --- |
| disrupting interaction | S140F |
